# According to the nanobody polyreactivity screen of Harvey et al. (2022):
# Assay: yeast display, Sf9 membrane polyspecificity reagent, FACS + sequencing; frameworks hold sequencing errors
# Summary of the method: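 Synthetic nanobody libraries on Saccharomyces cerevisiae BJ5465 were galactose-induced for 36–48 hours, stained 1 hour at 4 °C with 10% biotinylated, detergent-solubilized Sf9 membrane reagent and enriched on streptavidin microbeads. FACS then separated cells into low and high (top ~1%) gates by anti-HA (expression) and streptavidin (reagent binding) fluorescence. Genes were colony-PCR amplified, MiSeq 2 × 250 sequenced and CDR-length filtered. A clone's polyreactivity label is that of its gate of origin.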
row,Sequence,polyreactivity (PSR sort gate)
1,QVQLVESGGGLVQAGGSLRISFAASGFFFARYAMGWYRQEPGKERELVAAISGSGARTYYADSVKGRFTNSRDNAKNTVYLQMNSLKPEDTAVYYCAVRGSWYSEHNYWGQGTQVTVSS,high polyreactivity
2,QVQLVESGGGLVQAGGSLRLSCAASGSTFYGYAMGWSRQAPGKERELVAAISSSGSRTYYADSVKGRFTISRDNANNPVYLQMNSLKPEDTAVYYCAAVSTLLYYHYYTRDYWGQGTEVTVSS,high polyreactivity
3,QVQLVESGGGLVQAGGSLRLSCAASGRTFPRYAMGWYRQATGKERELVAAISVRAGITYYADSVKGRFTISRDNAKNTVYLQMNSLKPEDTAVYYCAKDHWTTSYDEGDYWGQGTQVTVSS,low polyreactivity
4,QVQLVESGGGLVQAGGSLRLSCAASGRIFLNYDMGWYTQAPGKERELVADISISGSTDYADSVKWRFTISRDNAKKTVYLQMNCLKPEDTAVYYCATSFYVSDYYVPYEMGYWGQGTQVTVSS,low polyreactivity
5,HVQLVESGGGLVQAGGSLRLSCDASGRTFYRYVIGWYRQAPGKERELVAAISKSDGSSYYADSVKGRFTISRDNAKNTVYLQMNSLKPEDTAVYYCAAQYPTFYSPRPFNYWGQGTQVTVSS,high polyreactivity
6,QVKLVESGGGLVQAGGSLRLSCAASGLIFIGYAMGWYRPAPGKEMELVASIRGVGSTNYADSVKGRFTISRDNAKNTVYLQMNSLKPEDTAVYYCPNSVDRALYTQTRGDYDYWGQGTQVTVSS,low polyreactivity
7,QVQLVESGGGLVQAGGSLRLSCAASGRIFYSNAMGWYRQAPGKERELVATISRGGSTYADSVKGRFTISRDNAKNTVYLQMNSLKPEDTAVYYCAAGLQGYPRKFNYWGQGTQVTVSS,low polyreactivity
8,QVQLVESGGGLVQAGGSLRLSCAASGFIFYDYAMGWYRQAPGKERELVAAITVDGGTTYYADSVKGRFTISRDNAKNTVYLQMNSLKPEDTAVYYCAADTYYGFDSNYEYCGQGTQVTVSS,low polyreactivity
9,QVQLVESGGGLVQAGGSLRLSCAASGIIYKSYAMGWYRQAPGKERELVAVIRWSGGSTYYSDSVKGRFTISRDNAKNTVYLQMNSLKPEDTAVYYCAATPRKSYSIRRYDYWGQGTQVTVSS,high polyreactivity
10,QVQLVESGGGLVQEGGSLRLSCAASGRTFSRYVMGWYRQAPGKERELVAAIRGSGGGTYYADSVKGRFTISRDNAKNTVYLQMNSLKPEDTAVYYCNVVRSTVLYDYWGQGTQVTVSS,high polyreactivity
11,QVQLVESGGGLVQAGGSLRLSCAASGSTFDTNVMGWYRQAPGKERDLVAAIDVSGGSTYYADSVKGRFTISRDNAKNTVYLQMNSLKPVDTAVYYCAAVDGKYGMDYWGQGTQVTVST,low polyreactivity
12,QVQLVESGGGLVQAGGSLRLSCAASGIILKFYAMGWYRQAPGKERELVAAISRGGRTNYADSVKGRFTISRDNANNTVYLQMNSLKPEDTAVYYCAAKSYTYYRNYDYWGQGTQVTVSA,high polyreactivity
13,QVQLVESGGALVQAGGSLRLSCAYTGLIFGLYAMGWYTQAPGQERDFVAAITSVTSTYYADSVKGRFTISRDNAKNTFFLQMISLKPEDTAVYYCAADSPVDYLYALYLSVRDDYWGHGTQVTVSS,low polyreactivity
14,QVQHVESGGGLVQAGGSLRLSCAASGITFSFYAMGWYRQAPGKERELVAAINGRGGRTYYADSVKGRFTISRDNAKNTVYLQMNSLKPEDTAVYYCAAVVWSTDYDYWGQGTQVTVSS,low polyreactivity
15,QVQLVESGGGLVQAGGSLRLSCAASGSTFRYNAMGWYRQAPGKERELVASISYNGGNTYYADSVKGRFTISRDNSKNTVYLQMNSLKPEDTAVYYCAAVPIKRGLILGDRGYNYWGQGTQVTVSS,high polyreactivity
16,QDQLVESGGGLVQAGGSLRLSCAASGRTFVSYAMGWYRQAPGKERELVAGISWSGDSTYYADSEKGRFTISRDNAKNTVYLQMNSLKPEDTAVYYCAAVQRTDRSAHYSWGQGTQVTLSS,low polyreactivity
17,QVQLVESGGGLVQAGGSLRLSCAASGIIFAANAMGWYRQAPGKERELVAAISWSGTSTYYADSVKGRFTISRDNAKNTVYLQMNSLNPEDTAVYYCAVDYYLWSGYSYLYEFEYWGQGTQVTVSS,high polyreactivity
18,QVQLVESGGGLVQAGGSLRLSCAASGRTFLIYAMGWYRQAPGKERELVAGITRGSTTYADSVKGRFTISRDNAKNTVYLQMNSLKPEDTAVYYCAARNYSVATYGEYDDWGQGTQVTVSS,high polyreactivity
19,QVQLVESGGGLVQAGGSLRLRCAASGSIFFYYVMGWYRQAPGKEREFVAAITYSGGSTYYADSVKGRFTISRDNAKNTVYFQMNSMQQEDTAVYYCAADYSPSIGGFWFGGRHYGYWGQGTQVTVSS,low polyreactivity
20,QVQLVESGGGLVQAGGSLRLSCAASGLIFSGYTMGWYRQAPGKERELVAAISKSGGNTYYADSVTGRFTISRDNAKNTVYLQMNSLKPEDTAVYYCNRDVTYYRGYDYWGQGTQVTVSS,high polyreactivity
21,QVQLVESGGGLVQAGGSLRLSCAASGRTLDVYAMGWSRQAPGKERELVASITSSGARTYYADSVKGRFTISRDNAKNTVYLQMNSLKPEDTAVYYCAARVYRYSASRAYDYWGQGSQVTVSS,high polyreactivity
22,QVQLVESGGGLVQAGGSLRLSCAASGRIFYQNVMGWYRQAPGKERELVAAITRRDVTTYADSVKGRFTISRDNAKNTVYLQMNSLKPEDTAVYYCNAVYYNWIGFDYWGQGTQVTVSS,low polyreactivity

row,Sequence,polyreactivity (PSR sort gate)
1,QVQLVESGGGLVQAGGSLRLSCAASGFIFDHNAMGWYRQAPGKERELVAAISGSGGSTYYADSVKGRFTISRDNAKNTVYLQMNSLKPEDTAVYYCNALKRTRLVRYYYWGQGTQVNVSS,high polyreactivity
2,QVQLVESGGGLFQAGGSLRLSSAASGFIFWTNVMGWYRQQPGKVRELVAGISKSGGSTYYADSVKGRFTISRDNAKNTVYLQMNCLKPEDTAVYYCAAPRPPAGRYGYWGQGTQVTVSS,high polyreactivity
3,QVQLVESGGRLVQAGGSLRLSCAASGFTFYGYAMGWYRQAPGKERELVAAISRGGGRTYYADSVKGRFTISRDNAKNTVYLQMNSLKPEDTAVYYCAAQGGSKTSSRSYGYWGQGTQVTVSS,high polyreactivity
4,QVQLVESGGGLVEAGVSLRISCAASGRIFAYNTMGWYRQAPGKERELVAAISWRGGSTYYADSVKGRFTISRDNEKNSVHLQRNSLKPEDTAVYYCAVLSSSLTRFDYWGQGSQVTVSS,high polyreactivity
5,QVQLVESGGGLVQAGGSLRLSCAASGSIFYGYVMGWYRQARGKERELVAAITRSGSTYYADSVKGRFTISRDNAKNTVYLQMNSLKPEDTAVYYCAAAAKRKYYWGQGNQVTVSS,high polyreactivity
6,QVQLVESGGGLVQAGGSLRLSCAASGRTFQRNAMGWYRQAPGKERELVAAISGGGSTYYADSVKGRFTISRDNAKNTVYLQMNSLKPEDTAVYYCAARSATRLYYFSRGYDYWGQGTQVTVSS,low polyreactivity
7,QVHLVESGGGLVQAGGTLRLSCAASGRIFHPNEMRWYRQAPGKEWELVAAISWRGTSTYADSVKGRFTISRDNAKNTVYLQMNSLKPEDTAVYYCVRRYTGLPGWSSYGSYESGYWGQGTQVTVSS,high polyreactivity
8,QVQLVESGGGLVQAGGSLRLSCAASGSIFTAYTMGWYRQAPGKERELVAAITERGGSTYYADSVKGRFTISRDNAKNTVYLQMNSMKPEDTAVYYCAASTLKDIYLWFRVDYWGQGTQVTVSS,low polyreactivity
9,QVQLVESGGGLVQAGGSLRLSCAASGSTFVGNAMGWYRQAPGKERELVAAITGGGGSTYYADSVKGRFTISRDNAKNTVYLQMNSLKPEDTAVYYCARDRTDYYVWYVRYYYWGQGTQVTVSS,low polyreactivity
10,QVQLVESGGGLVQAGGSLRLSCAASGSIFGRNAMGWSRQAPGTERELVARISSRGGSTYYADSVKGRFTISRDNAKNTVYLQMNSLKPEDTAVYYCNRDRTWQTNDYWGQGTQVTVSS,high polyreactivity
11,QVQLVESGGGLVQAGGSLRLSCAASGFTFGIYAMGWYRQAPGKERELVAAISRGGGSTYYADSVKGRFTISRDNAKNTVYLQMNSLKPEDTAVYYCAARYQSPYDYWGQGTQVTVSS,high polyreactivity
12,QVQLVESGGGLVQAGGSLRLSCAASGRGYYAMGWYRQAPGKERELVAAISRGGNTKYADSVKGRFTISRDNAKNTVYLQMNSLKPEDTAVYYCYTDWADYYYYTDYDYWGQGTQVTVSS,high polyreactivity
13,QLQLQESGGLVQAGGSLRLSCAASGSISGRNVIGCYRQAPGKEREYVASITDGSSTNYADSVKGRFTISRDNAKNTVYLQMNSLKPKDTAVYYCAAYAQRAKSFGYWGRGTQVTVSS,low polyreactivity
14,QVQLVESGGGLVQAGGSLRLSCAASGSTFRRNAMGWYRQPPGKERELVAAISGSGSTYYADSVKGRFTISRDHAKNTVYLQLNSLKPEDTAVYYCAKDVTDPTSRSDRSGDDYWGQGTQVTVSS,low polyreactivity
15,QVHLVESGGGLVQAGGSLRLTCAASGSIFSYAMGWYRQAPGKESELVAAISSGGGRTYYADSVKGRFTISRDNAKNTVYLQMNRLKPEDTAVYFCAAVGLPQGRYGYWGQGTQVTLSS,high polyreactivity
16,QVQLVESGGGLVQAGGSLGLSCAASGIIFGKYAMGWYRQAPGKERELVASITVDGGTTYYADSVKGLFTISRDNANNTVYLQMNSLKPEDTAVYYCATGVFAELWFDYWPYDYWGQGTQVTVSS,high polyreactivity
17,QVQLVESGGGLVQAGGSLRLSCAASGRTFYTNAMGWYRQAPGKERELSTNYADSVKGRFTISRDNAKNTVYLQMNSLKPEDTAVYYCNADGFLRFAGFDYWGQGTQVTVSS,low polyreactivity
18,QVQLVESGGGLVQAGGSLRLSCAASGITFISYVMGWYRQAPWKERELLAAISKRGGSTYYADSVKGRFTISRDNAKNTVYLQMNSLKPEDTAVYYCAAKTIPWSVGYDYWGQGTQVTVSS,high polyreactivity
19,QVQLVESGGGLVQAGGSLRLSCAASGRTFSKYTMGWYRQATGKERELVAVISRSGTRTYYADSVKGRFTISRDNAKNTVYLQMNSLKREDTAVYYCAAKDERRSFGMGYWGQGTQVTVSS,high polyreactivity
20,QVQLVESGGGLVQAGGSLRLSCAASGSIFSRYAMGWYRQAPGKERELVAAISKSGGTTYYADSVKGRFTISRDNAKNTVYLQMNSLKPEDTAVYYCNAKRYRNGSIGMGYWGQGTQVTVSS,high polyreactivity
21,QVQLVESGGGLVQAGGSLRLSCAASGRILRYYAMGWYRQAPGKERELVASITSGGSTYYADSVKGRFTISRDNAKNTVYLQMNSLKQEDTAVYYCAADPVYLKKLLYYVGQAYYYWGQGTQVTVSS,high polyreactivity
